Experimental data as given in article PMC2965237.

B1: RGL13/17 (dsDNA)
DNA 1: GACGCTGCCGAATTCTGGCTTGCTAGGACATCTTTGCCCACGTTGACCC
DNA 2: GGGTCAACGTGGGCAAAGATGTCCTAGCAAGCCAGAATTCGGCAGCGTC
B2: RGL13 (ssDNA)
DNA: B1 DNA 1

Legend:
Experiment in all cases: EMSA
RdgC R118C = RdgC R118C (Escherichia coli, UniProt P36767 1-303, R118C)
RdgC R118A = RdgC R118A (Escherichia coli, UniProt P36767 1-303, R118A)
RdgC H222A = RdgC H222A (Escherichia coli, UniProt P36767 1-303, H222A)
RdgC E218R = RdgC E218R (Escherichia coli, UniProt P36767 1-303, E218R)
RdgC Δfinger R118C = RdgC Δfinger R118C (Escherichia coli, UniProt P36767 1-303, P76G;L116T;R118C;del77-115)
RdgC F120T K227A = RdgC F120T K227A (Escherichia coli, UniProt P36767 1-303, F120T;K227A)

Binder | Kd (RdgC R118C) | Kd (RdgC R118A) | Kd (RdgC H222A) | Kd (RdgC E218R) | Kd (RdgC Δfinger R118C) | binding result (RdgC F120T K227A)
B1 | 6 nM | 6 nM | 12 nM | 22 nM |  | 
B2 | 6 nM | 6 nM | 5 nM |  | ~6000 nM | no binding
